Reference: US20060234308

Key:
[1] = system: T1, Leu-Arg-Arg-Ala-Ser-Leu-Gly-thioamide
T1 sequence: LRRASLG

[2] = system: T2, Cys-BAl-Ala-Lys-Arg-Arg-Arg-Leu-Ser-Ser-Leu-Arg-Ala-NH2
T2 sequence: CXAKRRRLSSLRA

[3] = system: 13-mer peptides of the scan through the myelin basic protein (MBP) from bos taurus
[4] = system: T3, Cys-BAl-Lys-Arg-Arg-Glu-Ile-Leu-Ser-Arg-Arg-Pro-Ser-Tyr-Arg-NH2
T3 sequence: CXKRREILSRRPSYR

[5] = system: T4, Cys-βAla-Leu-Arg-Arg-Ala-Ser-Leu-Gly-NH2
T4 sequence: CXLRRASLG

[6] = system: T5, Cys-BAl-Gly-Arg-Thr-Gly-Arg-Arg-Asn-Ser-Ile-NH2
T5 sequence: CXGRTGRRNSI

[7] = system: T6, Dpr(Aoa)-Leu-Arg-Arg-Ala-Ser-Leu-Gly-NH2
T6 sequence: LRRASLG

[8] = system: T7, Arg-Arg-Ile-Ser-Lys-Asp-Asn-Pro-Asp-Tyr-Gln-Gln-Asp-BAl-Cys-NH2
T7 sequence: RRISKDNPDYQQDXC

[9] = system: T8, Cys-BAl-Lys-Lys-Arg-Phe-Ser-Phe-Lys-Lys-Ser-Phe-Lys-Leu-NH2
T8 sequence: CXKKRFSFKKSFKL

[10] = system: other peptides not described as substrates for protein kinase C
[11] = system: T9, Cys-BAl-Pro-Leu-Ser-Arg-Thr-Leu-Ser-Val-Ala-Ala-Lys-Lys-NH2
T9 sequence: CXPLSRTLSVAAKK

[12] = system: T10, Cys-BAl-Gln-Lys-Arg-Pro-Ser-Gln-Arg-Ser-Lys-Tyr-Leu-NH2
T10 sequence: CXQKRPSQRSKYL

[13] = system: T11, Cys-BAl-Pro-Lys-Asp-Pro-Ser-Gln-Arg-Arg-Arg-NH2
T11 sequence: CXPKDPSQRRR

Row | Substance | phosphorylation of 11760 spots on glass (32P, PhosphorImager; FIG. 6) [1] | phosphorylation on peptide array (32P, PhosphorImager; higher signal in all three subarrays) [2] | phosphorylation on MBP peptide scan array (32P, PhosphorImager; higher signal in all three subarrays) [3] | phosphorylation on peptide array (32P, PhosphorImager; higher signal in all three subarrays) [4] | phosphorylation on peptide array (32P, PhosphorImager; higher signal in all three subarrays) [5] | time course of 32P incorporation on modified glass (FIG. 3) [5] | phosphorylation on peptide array (32P, PhosphorImager; higher signal in all three subarrays) [6] | phosphorylation of 960 spots on glass (32P, PhosphorImager; FIG. 7) [7] | phosphorylation on peptide array (32P, PhosphorImager) [8] | phosphorylation on peptide array (32P, PhosphorImager; higher signal in all three subarrays) [9] | phosphorylation on peptide array (32P, PhosphorImager; higher signal in all three subarrays) [10] | phosphorylation on peptide array (32P, PhosphorImager; higher signal in all three subarrays) [11] | phosphorylation on peptide array (32P, PhosphorImager; higher signal in all three subarrays) [12] | phosphorylation on peptide array (32P, PhosphorImager; higher signal in all three subarrays) [13]
1 | Protein kinase A | the linking of the immobilised kinase substrate is tolerated by the protein kinase A | with one exception, all the peptides on the modified glass surface are recognised and phosphorylated by protein kinase A which carries two arginine residues in position -2 and -3 (N-terminal) to the serine | most of the peptides on the modified glass surface are recognised and phosphorylated by protein kinase A which was also found in the experiment carried out in solution | with one exception, all the peptides on the modified glass surface are recognised and phosphorylated by protein kinase A which carries two arginine residues in position -2 and -3 (N-terminal) to the serine | with one exception, all the peptides on the modified glass surface are recognised and phosphorylated by protein kinase A which carries two arginine residues in position -2 and -3 (N-terminal) to the serine | a clear time dependence can be identified for the kinase-mediated incorporation of radioactivity into the substrate amino acid sequence | with one exception, all the peptides on the modified glass surface are recognised and phosphorylated by protein kinase A which carries two arginine residues in position -2 and -3 (N-terminal) to the serine | the linking of the immobilised kinase substrate is tolerated by the protein kinase A | The peptide 83 is probably not phosphorylated because of the excessive N-terminal localisation of the substrate motif |  |  |  |  | 
2 | Protein kinase C |  | the peptides known as protein kinase C substrates (substrate peptides Nos. 3, 23, 27, 41, 43) ... are recognised and phosphorylated by this kinase on the modified glass surface |  |  |  |  |  |  |  | the peptides known as protein kinase C substrates (substrate peptides Nos. 3, 23, 27, 41, 43) ... are recognised and phosphorylated by this kinase on the modified glass surface | other peptides not described as substrates for protein kinase C are recognised and phosphorylated by this kinase on the modified glass surface | the peptides known as protein kinase C substrates (substrate peptides Nos. 3, 23, 27, 41, 43) ... are recognised and phosphorylated by this kinase on the modified glass surface | the peptides known as protein kinase C substrates (substrate peptides Nos. 3, 23, 27, 41, 43) ... are recognised and phosphorylated by this kinase on the modified glass surface | the peptides known as protein kinase C substrates (substrate peptides Nos. 3, 23, 27, 41, 43) ... are recognised and phosphorylated by this kinase on the modified glass surface
